According to US20230047413A1 (Janssen / Centocor, published 2023):
Several values for one entry are separate records, joined by “and”; a condition that tells them apart may be missing. Identical values can stand only once.

Tests used:
Peptide-2 [1] = molecular target: T1, Peptide-2 (human, phosphothreonine 212, phosphothreonine 217 (tau 2N4R numbering); short chain biotin (SCBiot) and dPEG4 at the N-terminus; amide at the C-terminus); assay: SPR ProteOn, mAb captured, peptide as analyte; range of n=2
T1 construct: also called pT212/pT217-tau peptide (Peptide-2)
T1 sequence (peptide, as listed by the source): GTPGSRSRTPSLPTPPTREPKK
Method: (§1) A subset of HFA-PT3 monoclonal antibody variants, selected based on biophysical characterization and ELISA binding to PHF, were analyzed by Surface Plasmon Resonance (SPR) with a ProteOn XPR36 for binding to the following phosphopeptides: pT212/pT217-tau peptide (Peptide-2, SEQ ID NO: 48) and pT212-tau peptide (Peptide-8, SEQ ID NO: 54). All experiments were performed at 25° C. using PBST, pH 7.4, (Bio-Rad Cat#176-2720) as both running buffer and sample dilution buffer.
(§2) Monoclonal antibody/Peptide binding. […] Anti-human IgG was amine-coupled to the chip surface using EDC/NHS, then washed with ethanolamine. Antibodies were diluted to 2 μg/mL in PBST and injected on the surface for 5 min at 30 μL/min to achieve a maximum density of 900-1000 RU. Peptides were injected as analytes at 60 μL/min for 3 min, followed by 5 min dissociation. Peptide-2 was diluted in PBST to generate a three-fold concentration series (0-30 nM) and measured in duplicate. Single measurements of monoclonal antibody binding to Peptide-8 were recorded over the concentration range 0-100 nM.
(§3) Data were double referenced by subtraction of the interspot response, and the curves generated by the buffer only injection. The chip surface was regenerated with 0.85% phosphoric acid, followed by PBST injection before the next antibody titration injection. Data processing and analysis were performed using instrument software. The data were fit using a simple Langmuir 1:1 binding model.

Peptide-8 = molecular target: T2, Peptide-8 (human, phosphothreonine 212 (tau 2N4R numbering); SCBiot and dPEG4 at the N-terminus; amide at the C-terminus); assay: SPR ProteOn, mAb captured by anti-human Fc, peptide as analyte
T2 construct: also called pT212-tau peptide (Peptide-8)
Method: as §1, §2, §3

Peptide-2 [2] = molecular target: T1, Peptide-2; assay: SPR ProteOn, mAb captured, peptide as analyte
Method: as §1, §2, §3

[3] = molecular target: T3, tau phospho-peptide of the direct ELISA of Example 11; assay: direct ELISA on plate-coated tau phospho-peptide (10 ng/mL), detection with HRPO-labelled anti-Fab antibody
T3 construct: also called pT217 peptide; pT212/pT217 peptide
Method: (§4) Binding to tau phospho-peptide was analysed by ELISA where peptide (10 ng/mL) was directly coated to the plate overnight. […] After incubation with antibodies, plates were washed and 50 μL per well of HRPO labelled anti-Fab antibody (Jackson Immunoresearch laboratories) (diluted 1:10000 in blocking buffer). After another washing step detection was performed with “One step” TMB (Thermo Scientific) according to the manufacturers' instructions. Plates were analysed in EnVision® 2102 Multilabel Reader (Perkin Elmer, Waltham, Mass., USA). Binding curves were generated using GraphPad Prism7.0 software.

[4] = molecular target: T4, PHF-tau (paired helical filament tau isolated from Alzheimer's disease brain) (human, UniProt P10636-8 2-441, limits assumed, hyper-phosphorylated, aggregated; sites not listed for the preparation); assay: SPR ProteOn, PHF-tau capture-coupled via HT7, bivalent model
T4 construct: also called enriched PHF-tau; ePHF-tau
T4 sequence (P10636 other isoform, or with tags, fused parts or gaps limits assumed): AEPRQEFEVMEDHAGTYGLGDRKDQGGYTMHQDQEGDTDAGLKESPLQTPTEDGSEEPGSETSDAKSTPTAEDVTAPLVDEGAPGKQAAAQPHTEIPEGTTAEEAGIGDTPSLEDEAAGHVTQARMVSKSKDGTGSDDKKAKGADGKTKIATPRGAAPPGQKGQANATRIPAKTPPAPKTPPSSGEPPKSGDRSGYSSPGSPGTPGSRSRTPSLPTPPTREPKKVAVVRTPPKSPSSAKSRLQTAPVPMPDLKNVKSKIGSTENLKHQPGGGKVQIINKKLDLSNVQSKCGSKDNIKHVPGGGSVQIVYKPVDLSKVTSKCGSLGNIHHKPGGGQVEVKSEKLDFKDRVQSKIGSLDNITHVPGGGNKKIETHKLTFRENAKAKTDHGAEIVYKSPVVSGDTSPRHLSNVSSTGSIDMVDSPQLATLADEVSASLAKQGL
Method: (§5) Affinity matured monoclonal antibodies were tested for binding to PHF-tau isolated from Alzheimer's disease brain.
(§6) A GLC sensor chip was covalently immobilized with a mouse anti-tau antibody, HT7 (ThermoFisher, catalog# MN1000) using the vendor recommended protocol for amine-coupling chemistry (˜5000 response units, RU). The coupling buffer was 10 mM, pH 4.5 sodium acetate. PHF-tau was prepared by 2-times centrifugation at 5000×g in 5° C. for 10 min. […] After capture-coupling, the surface was activated and deactivated to generate a homogenous PHF-tau surface for antibody binding studies. The anti-tau antibodies and their Fabs (prepared in running buffer, 0.024-75 nM at 5-fold dilutions) were injected at 50 μL/min over the PHF-tau surface to measure binding. The association and dissociation profiles were monitored for 4 minutes and 2 hours, respectively. After dissociation, the sensor chip was regenerated using multiple injections of 10 mM Glycine pH 2.0 and the running buffer. A reference surface (without any PHF-tau) was used to monitor non-specific binding of the injected mAbs or Fabs. HT7 antibody was used as a positive control. The binding sensorgrams for mAbs were fit using a bivalent binding model where the apparent affinity or avidity-driven binding (KD) was reported as the ratio of off-rate and on-rate (koff/kₒₙ). A 1:1 Langmuir binding model was used for kinetics analysis of Fabs.

[5] = molecular target: T3, tau phospho-peptide of the direct ELISA …; assay: direct ELISA, peptide coated
Method: as §4

[6] = molecular target: T4, PHF-tau (paired helical filament tau …); assay: SPR ProteOn, PHF-tau on chip
[7] = molecular target: T4, PHF-tau (paired helical filament tau …); assay: SPR ProteOn, PHF-tau capture-coupled via HT7, bivalent model; remark: listed apart in the source
Method: A subset of HFA-PT3 monoclonal antibodies was tested for binding to PHF-tau isolated from Alzheimer's disease brain. All interactions were studied at 25° C. using PBS pH 7.4, supplemented with 3 mM EDTA, and 0.005% Tween 20 as running or system buffer. HT7 (Pierce, catalog #MN1000), a mouse anti-tau antibody, was used as a positive control.
The interaction of anti-tau monoclonal antibodies with PHF-tau was analyzed by ProteOn using a biosensor surface prepared by capture-coupling PHF-tau using HT7 as the capture reagent. PHF-tau was prepared by 2-times centrifugation at 5000×g at 5° C. for 10 min; the supernatant from the second centrifugation was then diluted 1/40 in running buffer. To prepare the chip, HT7 was covalently immobilized to the surface of a GLC (ProteOn) sensor chip using the manufacturer's instructions for amine-coupling chemistry (˜5000 response units (RU)). The coupling buffer was 10 mM sodium acetate, pH 4.5. After HT7 immobilization, PHF-tau was injected and captured (˜300 RU) by HT7. After capture, PHF-tau was covalently immobilized to the sensor chip by activation of the chip using the manufacturer's instructions for amine-coupling chemistry. Remaining reactive sites were blocked by the injection of ethanolamine. After preparation and stabilization of the PHF-tau-modified surface and reference surface (containing no antigen), the anti-tau antibodies were diluted in the running buffer and injected in solution (0.12-75 nM in 5-fold dilutions). The association was monitored for 3 minutes (120 μL injected at 40 μL/min). The dissociation was monitored for 15 minutes. Regeneration of the sensor surface was performed using 10 mM Gly pH 2.0. The data for monoclonal antibodies were fit using a bivalent binding model where the apparent affinity (KD) was reported as the ratio of koff/kₒₙ. A Langmuir 1:1 binding model was used for kinetics analysis of Fabs.

Peptide-2 [8] = molecular target: T1, Peptide-2; assay: SPR ProteOn, mAb captured, peptide as analyte; range of n=2; upper end of n=2 range
Method: as §1, §2, §3

[9] = molecular target: T4, PHF-tau (paired helical filament tau …); assay: SPR ProteOn, PHF-tau capture-coupled via HT7, 1:1 model
Method: as §5, §6

Kd (Peptide-2 [1]) [pM]	koff (Peptide-2 [1])	kon (Peptide-2 [1])	Kd (Peptide-8) [pM]	koff (Peptide-8) [s⁻¹]	kon (Peptide-8) [M⁻¹ s⁻¹]	Kd (Peptide-2 [2]) [pM]	koff (Peptide-2 [2]) [s⁻¹]	kon (Peptide-2 [2]) [M⁻¹ s⁻¹]	Kd [7] [pM]	koff [7] [s⁻¹]	kon [7] [M⁻¹ s⁻¹]	Binder	also measured
27.8 to 30.6	0.000242 s⁻¹ and 0.000408 s⁻¹	8.7e+06 M⁻¹ s⁻¹ and 1e+07 M⁻¹ s⁻¹	3480	0.00802	2.31e+06	29.2	0.000325	9.35e+06				B234 (antibody, human IgG1, V domains shown, Mouse PT3 variable regions (VH10/VL7) with human IgG1/kappa constant region; also called mouse PT3, hIgG1) VH: EVKLVESGGDLVKPGGSLKLSCAASGFTFSSYAMSWVRQNPEKRLEWVASISKGGNTYYPNSVKGRFTISRDNARNILYLQMSSLRSEDTALYYCARGWGDYGWFAYWGQVTLVTVSA VL: DIKMTQSPSSMYASLGERVTITCKASQDINRYLNWFQQKPGKSPKTLIYRANRLLDGVPSRFSGSGSGQDYSLTISSLDYEDMGIYYCLQYDEFPLTFGDGTKLELK	
												B333 (antibody, human IgG1, kappa, V domains shown, also called PT1B333) VH: QVQLVESGGGVVQPGRSLRLSCAASGFTFSSYAMSWVRQAPGKGLEWVASISKGGNTYYADSVKGRFTISRDNSKNTLYLQMNSLRAEDTAVYYCARGWGDYGWFAYWGQVTLVTVSS VL: DIQMTQSPSSLSASVGDRVTITCKASQDINRWLNWFQQKPGKAPKSLIYRANRLLDGVPSRFSGSGSGTDFTLTISSLQPEDFATYYCLQYDEFPLTFGQGTKLEIKR	EC50 (read off the curve) [3]: ~90 pM; Kd [4]: 2.5 pM; koff [4]: 6.8e-06 s⁻¹; kon [4]: 2.68e+06 M⁻¹ s⁻¹; EC50 [5]: 164 pM
									43	1.11e-05	255000	B352 (IgG4 mAb) (antibody, V domains shown, IgG4 variant of B296 with the same variable regions; also called B296 as hIgG4) VH: QVQLVESGGGVVQPGRSLRLSCAASGFTFSSYAMSWVRQAPGKGLEWVASISKGGNTYYADSVKGRFTISRDNSKNTLYLQMNSLRAEDTAVYYCARGWGDYGWFAYWGQVTLVTVSS VL: DIQMTQSPSSLSASVGDRVTITCKASQDINRYLNWFQQKPGKAPKSLIYRANRLLDGVPSRFSGSGSGTDFTLTISSLQPEDFATYYCLQYDEFPLTFGQGTKLEIK	fold difference in affinity against B296 [6]: ≤ 2 fold
126 to 217	0.000856 s⁻¹	3.95e+06 M⁻¹ s⁻¹	32600	0.0242	742000	172	0.000901	5.75e+06	32	4.28e-05	1.32e+06	B252 (antibody, human IgG1, V domains shown, Humanized (HFA) PT3 variant, human IgG1/kappa; also called VH93/VL80) VH: QVQLVESGGGLVKPGGSLRLSCAASGFTFSSYAMSWIRQAPGKGLEWVSSISKGGNTYYADSVKGRFTISRDNAKNSLYLQMNSLRAEDTAVYYCARGWGDYGWFAYWGQVTLVTVSS VL: DIVMTQTPLSSPVTLGQPASISCKASQDINRYLNWLQQRPGQPPRLLIYRANRLLDGVPDRFSGSGAGTDFTLKISRVEAEDVGVYYCLQYDEFPLTFGQGTKLEIK	koff (Peptide-2 [8]): 0.000946 s⁻¹; kon (Peptide-2 [8]): 7.54e+06 M⁻¹ s⁻¹
									42	6.03e-05	1.44e+06	B297 (antibody, human IgG1, V domains shown, Humanized (HFA) PT3 variant, human IgG1/kappa; it is built from VL77 with D56S; also called VH93/VL78) VH: QVQLVESGGGLVKPGGSLRLSCAASGFTFSSYAMSWIRQAPGKGLEWVSSISKGGNTYYADSVKGRFTISRDNAKNSLYLQMNSLRAEDTAVYYCARGWGDYGWFAYWGQVTLVTVSS VL: DIQMTQSPSSLSASVGDRVTITCKASQDINRYLNWFQQKPGKAPKSLIYRANRLLSGVPSRFSGSGSGTDFTLTISSLQPEDFATYYCLQYDEFPLTFGQGTKLEIK	
360 to 529	0.00124 s⁻¹	2.34e+06 M⁻¹ s⁻¹	86500	0.0382	442000	445	0.00132	3.12e+06	61	4.08e-05	665000	B282 (antibody, human IgG1, V domains shown, Humanized (HFA) PT3 variant, human IgG1/kappa; also called VH93/VL77) VH: QVQLVESGGGLVKPGGSLRLSCAASGFTFSSYAMSWIRQAPGKGLEWVSSISKGGNTYYADSVKGRFTISRDNAKNSLYLQMNSLRAEDTAVYYCARGWGDYGWFAYWGQVTLVTVSS VL: DIQMTQSPSSLSASVGDRVTITCKASQDINRYLNWFQQKPGKAPKSLIYRANRLLDGVPSRFSGSGSGTDFTLTISSLQPEDFATYYCLQYDEFPLTFGQGTKLEIK	koff (Peptide-2 [8]): 0.0014 s⁻¹; kon (Peptide-2 [8]): 3.89e+06 M⁻¹ s⁻¹
												B331 (Fab of B333) (Fab, V domains shown) VH: QVQLVESGGGVVQPGRSLRLSCAASGFTFSSYAMSWVRQAPGKGLEWVASISKGGNTYYADSVKGRFTISRDNSKNTLYLQMNSLRAEDTAVYYCARGWGDYGWFAYWGQVTLVTVSS VL: DIQMTQSPSSLSASVGDRVTITCKASQDINRWLNWFQQKPGKAPKSLIYRANRLLDGVPSRFSGSGSGTDFTLTISSLQPEDFATYYCLQYDEFPLTFGQGTKLEIK	Kd [9]: 31 pM; koff [9]: 5.31e-05 s⁻¹; kon [9]: 1.72e+06 M⁻¹ s⁻¹
												B332 (Fab of B809) (Fab, V domains shown) VH: QVQLVESGGGVVQPGRSLRLSCAASGFTFTSYAMSWVRQAPGKGLEWVASITKGGNTYYADSVKGRFTISRDNSKNTLYLQMNSLRAEDTAVYYCARGWGIYGWFAYWGQVTLVTVSS VL: DIQMTQSPSSLSASVGDRVTITCKASQDINRYLNWFQQKPGKAPKSLIYRANRLLDGVPSRFSGSGSGTDFTLTISSLQPEDFATYYCLQYDEFPLTFGQGTKLEIK	Kd [9]: 25.8 pM; koff [9]: 0.00012 s⁻¹; kon [9]: 4.64e+06 M⁻¹ s⁻¹
